{
  "source": "paper PMC6294257",
  "about": "“Osteocalcin triggers Fas/FasL-mediated necroptosis in adipocytes via activation of p300” (Cell Death & Disease, 2018)",
  "target": "the molecule itself",
  "assay": "non-reducing SDS-PAGE and immunoblot; 3T3-L1 adipocytes incubated with GluOC for 24 h; cell lysates prepared in the absence of 2-mercaptoethanol; immunoblot with antibodies to MLKL",
  "data": [
    {"protein": "mixed-lineage kinase domain-like protein (MLKL) (natural protein, mouse (endogenous in 3T3-L1), UniProt Q9D2Y4 1-472, looked up, mixed-lineage kinase domain-like protein (MLKL), endogenous in 3T3-L1 adipocytes treated with GluOC; High-dose GluOC induces phosphorylation of MLKL, printed as Thr357/Ser358; these numbers may be those of human MLKL although the cells are mouse; source: endogenous, 3T3-L1 adipocyte lysate) MDKLGQIIKLGQLIYEQCEKMKYCRKQCQRLGNRVHGLLQPLQRLQAQGKKNLPDDITAALGRFDEVLKEANQQIEKFSKKSHIWKFVSVGNDKILFHEVNEKLRDVWEELLLLLQVYHWNTVSDVSQPASWQQEDRQDAEEDGNENMKVILMQLQISVEEINKTLKQCSLKPTQEIPQDLQIKEIPKEHLGPPWTKLKTSKMSTIYRGEYHRSPVTIKVFNNPQAESVGIVRFTFNDEIKTMKKFDSPNILRIFGICIDQTVKPPEFSIVMEYCELGTLRELLDREKDLTMSVRSLLVLRAARGLYRLHHSETLHRNISSSSFLVAGGYQVKLAGFELSKTQNSISRTAKSTKAERSSSTIYVSPERLKNPFCLYDIKAEIYSFGIVLWEIATGKIPFEGCDSKKIRELVAEDKKQEPVGQDCPELLREIINECRAHEPSQRPSVDGRSLSGRERILERLSAVEESTDKKV", "values": [
      {"measurement": "stoichiometry N", "value": 3}
    ]}
  ]
}
